One block for each binder: values may come before it.
Assays:
[1] = biological target: the molecule itself; assay: native gel or EMSA; BN-PAGE (4-16% gradient) of TatCHis variants purified in digitonin from the Tat wild-type strain C43(DE3); Coomassie stained
[2] = biological target: T1, TatC with a hexa-histidine tag on the C-terminus, co-produced with TatB (with or without TatA, TatD, TatE) (Escherichia coli, UniProt P69423 1-258); assay: co-purification by Ni(II) affinity chromatography + SEC; TatCHis-containing complexes from digitonin-solubilized membranes of strain DADE producing TatABCHisDE; Ni(II) HiTrap column, then Superose 6 in 20 mM MOPS-HCl pH 7.2, 200 mM NaCl, 0.1% digitonin; peak fraction on SDS-PAGE, Coomassie; settings: partners not purified
T1 construct: TatC, integral membrane protein of the Escherichia coli Tat system; protomer molecular weight printed as 28.9 kDa; The printed protomer weight of 28.9 kDa fits the whole TatC protein; also called TatCHis; TatCHis of Tat(A)BCHis; source: E. coli strain DADE (MC4100 ΔtatABCDΔtatE), overproduced from pFAT75CH (TatABCHisDE) or pFAT75CHΔA (TatBCHis); digitonin-solubilized membranes; not shown: His6, …
T1 sequence (looked up): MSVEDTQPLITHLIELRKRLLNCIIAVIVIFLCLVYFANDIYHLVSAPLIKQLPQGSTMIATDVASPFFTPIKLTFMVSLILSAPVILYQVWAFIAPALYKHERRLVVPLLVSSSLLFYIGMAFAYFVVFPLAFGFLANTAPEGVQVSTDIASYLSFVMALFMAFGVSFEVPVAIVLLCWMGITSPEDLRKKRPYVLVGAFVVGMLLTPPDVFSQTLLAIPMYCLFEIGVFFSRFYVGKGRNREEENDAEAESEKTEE

[3] = biological target: the molecule itself; assay: native gel or EMSA; BN-PAGE (5-18% gradient) of digitonin-solubilized whole membranes of strain DADE overproducing TatBHis, TatABCHisDE or TatBCHis; immunoblot with anti-TatB or anti-His tag

B1: TatC with a hexa-histidine tag on the C-terminus, produced alone from pFAT588 (natural protein, Escherichia coli (strain MC4100), UniProt P69423 1-258, looked up)
chain: MVSVEDTQPLITHLIELRKRLLNCIIAVIVIFLCLVYFANDIYHLVSAPLIKQLPQGSTMIATDVASPFFTPIKLTFMVSLILSAPVILYQVWAFIAPALYKHERRLVVPLLVSSSLLFYIGMAFAYFVVFPLAFGFLANTAPEGVQVSTDIASYLSFVMALFMAFGVSFEVPVAIVLLCWMGITSPEDLRKKRPYVLVGAFVVGMLLTPPDVFSQTLLAIPMYCLFEIGVFFSRFYVGKGRNREEENDAEAESEKTEE
notes: TatC, Escherichia coli; tatC gene amplified from chromosomal DNA of strain MC4100, cloned NcoI/BglII into pQE60; protomer molecular weight printed as 28.9 kDa; also called TatCHis; source: E. coli strain C43(DE3) or its ΔtatABC derivative C43ΔTat(DE3), overproduced from pFAT588; digitonin-solubilized membranes; not shown: His6, C-terminal, kept
stoichiometry N [1]: ≤ 7

binding result [2]: binds
B2: TatB, untagged, co-produced with TatCHis (natural protein, Escherichia coli, UniProt P69425 1-171, looked up)
chain: MFDIGFSELLLVFIIGLVVLGPQRLPVAVKTVAGWIRALRSLATTVQNELTQELKLQEFQDSLKKVEKASLTNLTPELKASMDELRQAAESMKRSYVANDPEKASDEAHTIHNPVVKDNEAAHEGVTPAAAQTQASSPEQKPETTPEPVVKPAADAEPKTAAPSPSSSDKP
notes: TatB, integral membrane protein of the Escherichia coli Tat system; protomer molecular weight printed as 18.4 kDa; source: E. coli strain DADE (MC4100 ΔtatABCDΔtatE), overproduced from pFAT75CH or pFAT75CHΔA; digitonin-solubilized membranes

B3: TatB with a C-terminal hexa-histidine tag (natural protein, Escherichia coli, UniProt P69425 1-171, looked up)
chain: MFDIGFSELLLVFIIGLVVLGPQRLPVAVKTVAGWIRALRSLATTVQNELTQELKLQEFQDSLKKVEKASLTNLTPELKASMDELRQAAESMKRSYVANDPEKASDEAHTIHNPVVKDNEAAHEGVTPAAAQTQASSPEQKPETTPEPVVKPAADAEPKTAAPSPSSSDKP
notes: TatB, integral membrane protein of the Escherichia coli Tat system; protomer molecular weight printed as 18.4 kDa; Produced in the absence of any other Tat components; detected with anti-TatB serum; also called TatBHis; source: E. coli strain DADE (MC4100 ΔtatABCDΔtatE), overproduced from pFAT586; digitonin-solubilized membranes
stoichiometry N [3]: ≤ 4

From PMC2517984, “TatBC, TatB, and TatC form structurally autonomous units within the twin arginine protein transport system of Escherichia coli” (Febs Letters, 2007)
